Results published in US20070192884A1.
Values joined by “and” are separate entries in the source; they are usually repeats but may differ in a detail not shown here. Equal entries are not always repeated.

Experiments:
[1] = biological target: TAT-038 as carried by human tumor cell lines (H1299, PC-3, K562, HL-60) (human) (UniProt P15144); experiment: flow cytometry, PC3 human tumor cells
[2] = biological target: TAT-038 as carried by human tumor cell lines (H1299, PC-3, K562, HL-60) (human) (UniProt P15144); experiment: flow cytometry, K562 human tumor cells
[3] = biological target: TAT-038 as carried by human tumor cell lines (H1299, PC-3, K562, HL-60) (human) (UniProt P15144); experiment: flow cytometry, PC-3 human tumor cells
[4] = biological target: TAT-038 as carried by human tumor cell lines (H1299, PC-3, K562, HL-60) (human) (UniProt P15144); experiment: flow cytometry, H1299 human tumor cells
[5] = biological target: TAT-038 as carried by human tumor cell lines (H1299, PC-3, K562, HL-60) (human) (UniProt P15144); experiment: flow cytometry, HL-60 human tumor cells
[6] = biological target: TAT-038 (full-length, cloned from human placenta cDNA, expressed from phCMV1-TAT-038 in stable 293G and BaF3 cells) (human) (UniProt P15144); experiment: flow cytometry, 293G cells stably expressing TAT-038 (293G-ANPEP)
[7] = biological target: TAT-038 (full-length, cloned from human placenta cDNA, expressed from phCMV1-TAT-038 in stable 293G and BaF3 cells) (human) (UniProt P15144); experiment: flow cytometry, BaF3 cells stably expressing TAT-038 (BAF3 ANPEP)

geometric mean fluorescence [1]: 125 | geometric mean fluorescence [2]: 7 and 9 | geometric mean fluorescence [3]: 47 | geometric mean fluorescence [4]: 4 | geometric mean fluorescence [5]: 23 | geometric mean fluorescence [6]: 221 | geometric mean fluorescence [7]: 59.3
Substance: Mouse monoclonal antibody WM15 (BD Pharmingen, cat#555393)
